Test results from paper PMC12158189, “Rigid DNA Frameworks Anchored Transistor Enabled Ultrasensitive Detection of Aβ-42 in Serum”.

Columns and labels:
[1] = target: T1, Aβ-42 (amyloid beta 1-42) (UniProt P05067 672-713); experiment: G-FET (VDirac shift, Ids-t); full serum; 1x PBS with 12.5 mM Mg2+, pH 7.0-7.4, room temperature; or full serum; probe immobilized on graphene FET; conditions: protein: commercial; DNA tetrahedron of 4 strands, six 17 bp edges, pendant aptamer with 5T spacer
[2] = target: T1, Aβ-42 (amyloid beta 1-42); experiment: G-FET (VDirac shift, Hill fit); pseudo KD; 12.5 mM Mg2+; PBS; 1x PBS with 12.5 mM Mg2+, pH 7.0-7.4, room temperature; or full serum; probe immobilized on graphene FET; conditions: protein: commercial; DNA tetrahedron of 4 strands, six 17 bp edges, pendant aptamer with 5T spacer
[3] = target: T1, Aβ-42 (amyloid beta 1-42); experiment: G-FET (VDirac shift, Hill fit); five orders of magnitude weaker than TDN; 12.5 mM Mg2+; SI captions say insulin; 1x PBS with 12.5 mM Mg2+, pH 7.0-7.4, room temperature; or full serum; probe immobilized on graphene FET; conditions: protein: commercial

T1 sequence (P05067 672-713): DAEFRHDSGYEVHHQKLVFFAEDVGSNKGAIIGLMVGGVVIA

B1: 17bp-5T TDN (tetrahedral DNA nanostructure with Aβ-42 aptamer) (structured_DNA)
DNA 1: AGTCTAGGATTCGGCGTGGGTTAATTTTTTGCTGCCTGTGGTGTTGGGGCGGGTGCGTTTTTACATTCCTAAGTCTGAAACATTACAGCTTGCTACACGAGAAGAGCCGCCATAGTA
DNA 2: TATCACCAGGCAGTTGACAGTGTAGCAAGCTGTAATAGATGCGAGGGTCCAATAC
DNA 3: TCAACTGCCTGGTGATAAAACGACACTACGTGGGAATCTACTATGGCGGCTCTTC
DNA 4: TTCAGACTTAGGAATGTGCTTCCCACGTAGTGTCGTTTGTATTGGACCCTCGCAT
modifications: 5' NH2-C6 on strands B17, C17, D17
binding result [1]: binds | binding result [2]: binds

B2: ss-DNA aptamer (Aβ-42 aptamer) (ssDNA)
DNA: AGTCTAGGATTCGGCGTGGGTTAATTTTTTGCTGCCTGTGGTGTTGGGGCGGGTGCG
modifications: 5' NH2-C6
binding signal [3]: ~100000 fold higher pseudo KD than TDN
